These results are taken from the supplement of paper PMC7877785.

± gives the uncertainty stated by the source.

The nature of the series: self-splicing fitness, log relative to wild type (ln ratio); higher = more splicing; Tetrahymena group I intron in knt gene, E. coli kanamycin selection, DiMSum; sequences stand for … in CUCUCU…GGAGGGAAAAGUUAUCAGGCAUGCACCUGGUAGCUAGUCUUUAAACCAAUAGAUUGCAUCGGUUUAAAAGGCAAGACCGUCAAAUUGCGGGAAAGGGGUCAACAGCCGUUCAGUACCAAGUCUCAGGGGAAACUUUGAGAUGGCCUUGCAAAGGGUAUGGUAAUAAGCUGACGGACAUGGUCCUAACCACGCAGCCAAGUCCUAAGUCAACAGAUCUUCUGUUGAUAUGGAUGCAGUUCACAGACUAAAUGUCGGUCGGGGAAGAUGUAUUCUUCUCAUAAGAUAUAGUCGGACCUCUCCUUAAUGGGAGCUAGCGGAUGAAGUGAUGCAACACUGGAGCCGCUGGGAACUAAUUUGUAUGCGAAAGUAUAUUGAUUAGUUUUGGAGUACUCGUGGUCG
The method, boiled down: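 Pooled colonies went to amplicon sequencing on an Illumina HiSeq 2500 after six replicate transformations. The plates were LB agar with 100 μg/mL carbenicillin, 50 μM IPTG and 0.2% rhamnose, with or without 25 μg/mL kanamycin, incubated overnight at 37°C or 30°C. The E. coli BL21(DE3) library had all eight P1ex-region intron nucleotides randomised, the intron placed in the knt kanamycin-resistance gene on pET-22b(+). DiMSum fitness is the error-weighted combination of replicate fold changes, kanamycin against none, normalised to wild type.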

As for CGUUAGCAAUAUUACGCGUG, the “self-splicing fitness (ln)” value reads like this: (30 °C) -1.3 ± 0.099; (37 °C) -1.36 ± 0.089.
As to CGUUAGCAAUAUUACGGAUG, the “self-splicing fitness (ln)” value is -1.85 ± 0.11 (30 °C) and -1.37 ± 0.14 (37 °C).
On to CGUUAGCAAUAUUACGGCAA, for which the “self-splicing fitness (ln)” value is, setting by setting: (30 °C) -2.91 ± 0.2; (37 °C) -1.1 ± 0.15.
In the same order, the values of CGUUAGCAAUAUUACGGCGU are -3.75 ± 0.31 and -0.556 ± 0.19.
Take CGUUAGCAAUAUUACGGCUG: the “self-splicing fitness (ln)” value runs as follows: (30 °C) -0.2 ± 0.093; (37 °C) -0.439 ± 0.12.
As to CGUUAGCAAUAUUACGGGGA, where the note is “37 °C”, the “self-splicing fitness (ln)” value is -2.28 ± 0.3.
Consider CGUUAGCAAUAUUACGGGUC, for which the “self-splicing fitness (ln)” value is -3.39 ± 0.41 (30 °C) and -2.01 ± 0.24 (37 °C).
Taken in the same sequence, the figures for CGUUAGCAAUAUUACGGUCA were -0.526 ± 0.14 and -0.197 ± 0.14.
CGUUAGCAAUAUUACGGUCC: for the setting “37 °C”, the “self-splicing fitness (ln)” value was -1.08 ± 0.48.
CGUUAGCAAUAUUACGGUUU: the “self-splicing fitness (ln)” value is, setting by setting: (30 °C) -3.84 ± 0.34; (37 °C) -2.44 ± 0.21.
For the sequence CGUUAGCAAUAUUACGUAAG, the “self-splicing fitness (ln)” value is -0.652 ± 0.1 (30 °C) and -0.0337 ± 0.14 (37 °C).
For CGUUAGCAAUAUUACGUAUA, the “self-splicing fitness (ln)” value was -2.85 ± 0.28 (30 °C) and -2.49 ± 0.31 (37 °C).
Turning to CGUUAGCAAUAUUACGUAUG, the “self-splicing fitness (ln)” value was -2.12 ± 0.097 (30 °C) and -0.357 ± 0.097 (37 °C).
For the sequence CGUUAGCAAUAUUACGUCUG, the “self-splicing fitness (ln)” value by setting is: (30 °C) -0.914 ± 0.11; (37 °C) 0.164 ± 0.13.
In the same order, the values of CGUUAGCAAUAUUACGUGCU are -2.71 ± 0.2 and -1.64 ± 0.21.
In the same order, the values of CGUUAGCAAUAUUACGUUAG are -0.796 ± 0.081 and -0.539 ± 0.1.
Consider CUAAAGCAAUAUUACGAAAC, for which the “self-splicing fitness (ln)” value runs as follows: (30 °C) -3.29 ± 0.45; (37 °C) -2.67 ± 0.41.
Taken in the same sequence, the figures for CUAAAGCAAUAUUACGAACU were -5.08 ± 0.38 and -2.04 ± 0.19.
On to CUAAAGCAAUAUUACGAAUA, for which the “self-splicing fitness (ln)” value (30 °C) was -2.73 ± 0.23 and the “self-splicing fitness (ln)” value (37 °C) was -1.94 ± 0.24.
CUAAAGCAAUAUUACGAAUU: the “self-splicing fitness (ln)” value by setting is: (30 °C) -3.57 ± 0.29; (37 °C) -3.9 ± 0.36.
With CUAAAGCAAUAUUACGACCG, the “self-splicing fitness (ln)” value is, setting by setting: (30 °C) 0.565 ± 0.087; (37 °C) 0.104 ± 0.11.
In the same order, the values of CUAAAGCAAUAUUACGACGG are -0.113 ± 0.051 and 0.466 ± 0.082.
On to CUAAAGCAAUAUUACGAGUC, for which the “self-splicing fitness (ln)” value reads like this: (30 °C) -4.51 ± 0.3; (37 °C) -2.96 ± 0.31.
As to CUAAAGCAAUAUUACGAUAC, the “self-splicing fitness (ln)” value (37 °C) was -2.32 ± 0.31.
For CUAAAGCAAUAUUACGCAGG, the “self-splicing fitness (ln)” value was -0.529 ± 0.12 (30 °C) and -1.09 ± 0.19 (37 °C).
In the same order, the values of CUAAAGCAAUAUUACGCAGU are -3.13 ± 0.31 and -3.43 ± 0.32.
Consider CUAAAGCAAUAUUACGCCAU, for which the “self-splicing fitness (ln)” value (30 °C) was -3.34 ± 0.33 and the “self-splicing fitness (ln)” value (37 °C) is -1.36 ± 0.27.
Taken in the same sequence, the figures for CUAAAGCAAUAUUACGCCGG were -0.951 ± 0.16 and -0.177 ± 0.18.
In the same order, the values of CUAAAGCAAUAUUACGCCGU are -3.75 ± 0.27 and -2.39 ± 0.25.
Take CUAAAGCAAUAUUACGCUUC: under “30 °C”, the “self-splicing fitness (ln)” value was -3.03 ± 0.22.
On to CUAAAGCAAUAUUACGGAAG, for which the “self-splicing fitness (ln)” value reads like this: (30 °C) -0.274 ± 0.062; (37 °C) 0.0341 ± 0.083.
In the same order, the values of CUAAAGCAAUAUUACGGAUA are -3.45 ± 0.19 and -2.36 ± 0.2.
Taken in the same sequence, the figures for CUAAAGCAAUAUUACGGCAA were -3.27 ± 0.18 and -1.35 ± 0.15.
CUAAAGCAAUAUUACGGUCU: the “self-splicing fitness (ln)” value by setting is: (30 °C) -3.74 ± 0.21; (37 °C) -3.69 ± 0.29.
Taken in the same sequence, the figures for CUAAAGCAAUAUUACGUACU were -3.28 ± 0.17 and -2.57 ± 0.22.
Taken in the same sequence, the figures for CUAAAGCAAUAUUACGUCAC were -2.66 ± 0.14 and -2.62 ± 0.22.
Consider CUAAAGCAAUAUUACGUGGA, for which the “self-splicing fitness (ln)” value is, setting by setting: (30 °C) -3.7 ± 0.2; (37 °C) -2.64 ± 0.19.
In the same order, the values of CUAAAGCAAUAUUACGUUGG are -2.52 ± 0.12 and -0.891 ± 0.1.
Taken in the same sequence, the figures for CUAAAGCAAUAUUACGUUGU were -3.91 ± 0.12 and -3.06 ± 0.15.
